The text below walks through data of patent US20210347870A1.

This assay deals with mesothelin on MIA PaCa2-MSLN cells (mesothelin-overexpressing human pancreatic cancer cell line) (UniProt Q13421). The assay can be described thus: flow cytometry: 1 µg scFv on 1x10^5 MIA PaCa2-MSLN cells, anti-6X His tag antibody detection.
UniProt Q13421, sequence (Q13421 other isoform, or with tags, fused parts or gaps limits assumed): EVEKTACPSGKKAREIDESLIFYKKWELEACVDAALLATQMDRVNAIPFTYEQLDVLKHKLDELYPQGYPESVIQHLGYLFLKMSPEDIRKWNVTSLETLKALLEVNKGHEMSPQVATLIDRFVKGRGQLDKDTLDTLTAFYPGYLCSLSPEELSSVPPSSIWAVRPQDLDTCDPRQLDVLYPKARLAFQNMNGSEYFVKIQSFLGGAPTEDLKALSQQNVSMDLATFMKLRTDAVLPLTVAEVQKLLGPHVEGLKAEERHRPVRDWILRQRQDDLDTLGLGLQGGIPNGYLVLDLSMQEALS

B1: MS501 scFv protein (scFv)
scFv: EVQLLESGGGLVQPGGSLRLSCAASGFTFSNYAMSWVRQAPGKGLEWVSGIYPDSGSTYYADSVKGRFTISRDNSKNTLYLQMNSLRAEDTAVYYCARNIYTFDYWGQGTLVTVSSGGGGSGGGGSGGGGSQSVLTQPPSASGTPGQRVTISCSGSSSNIGSNAVSWYQQLPGTAPKLLIYYNNQRPSGVPDRFSGSKSGTSASLAISGLRSEDEADYYCGSWDSSLSGYVFGGGTKLTVLG
B1 gave a percent bound above 68%.

B2: MS503 scFv protein (scFv)
scFv: EVQLLESGGGLVQPGGSLRLSCAASGFTFSNYAMSWVRQAPGKGLEWVSSIYPGDGSTYYADSVKGRFTISRDNSKNTLYLQMNSLRAEDTAVYYCAKNAFTFDYWGQGTLVTVSSGGGGSGGGGSGGGGSQSVLTQPPSASGTPGQRVTISCSGSSSNIGSNAVSWYQQLPGTAPKLLIYYNSHRPSGVPDRFSGSKSGTSASLAISGLRSEDEADYYCGTWDSSLSGYVFGGGTKLTVLG
The molecule B2 returned a percent bound above 68%.

B3: C2G4 scFv protein (scFv)
scFv: EVQLLESGGGLVQPGGSLRLSCAASGFTFSNYAMSWVRQAPGKGLEWVSGIPPDSGSKYYADSVRGRFTVSRDNSKNTLYLQMNSLRAEDTAVYYCAKNMLSFDYWGQGTLVTVSSGGGGSGGGGSGGGGSQSVLTQPPSASGTPGQRVTISCTGSSSNIGSNAVSWYQQLPGTAPKLLIYYNSKRPSGVPDRFSGSKSGTSASLAISGLRSEDEADYYCGSWDPSLNGYVFGGGTKVTVLG
B3 yielded a percent bound above 68%.
